# Measured values taken from publication PMC4250094 (Structure (London, England : 1993), 2010).
# B1: RAGE VC1 (tandem V and C1 domains of the receptor for advanced glycation end products) (domain or fragment, human)
# chain: AQNITARIGEPLVLKCKGAPKKPPQRLEWKLNTGRTEAWKVLSPQGGGPWDSVARVLPNGSLFLPAVGIQDEGIFRCQAMNRNGKETKSNYRVRVYQIPGKPEIVDSASELTAGVPNKVGTCVSEGSYPAGTLSWHLDGKPLVPNEKGVSVKEQTRRHPETGLFTLQSELMVTPARGGDPRPTFSCSFSPGLPRHRALRTAPIQPRVWEPVPLEEVQL
# Target: the molecule itself
# Test: oligomer pelleting by centrifugation with UV absorbance of the supernatant
protein,measurement,value
B1,Kd,3.8 ± 1.3 µM
